The text below walks through data of the supplement of paper PMC12636428.

The series deals with Saccharomyces cerevisiae. Description: transcriptional activation domain activity (GFP:mCherry ratio, weighted mean of sorted bins, harmonized to initial dataset scale) (arbitrary fluorescence ratio units); higher = stronger transcriptional activation. To be noted: beta-estradiol 1 µM; induction time 4 h. The essentials:
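The activation activity of each tile is the read-weighted mean of bin median fluorescence, averaged across its barcodes and mapped linearly onto the scale of the initial dataset. Tiles were fused to an estradiol-inducible synthetic transcription factor, barcoded, and integrated at URA3 in yeast diploids carrying a GFP reporter. Induction used 1 uM beta-estradiol in SC for 4 hours at 30 °C, after which cells were sorted into 8 GFP:mCherry bins, and any tile with fewer than 50 reads was dropped.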

As for “WETIGTILYLFYVFTFLRLRFFLLLFYLYELTTMISLTIYIILYTLLFYFSCY”, the “transcriptional activation domain activity” value amounted to 41200. In the case of “WFAKFVVRLVYCLAWVRGQLLRRSSPIQTMMLALRCPHVLPWIDAGTPRLYIY”, the “transcriptional activation domain activity” value was determined as 54700. As to “WFRDMRFPYVPRAFSRLLKNLLVAVYVSLFNSCIFWFTSSRLHPQRRFIARYL”, the “transcriptional activation domain activity” value is 64800. Next, “WGFRVMSQLPTFWYRTEYFWIDYPHWDMKPELKRYYLMQMAYWLQQLIVLVLG”: 92400; “WGLIIGLVGLNAALIYIGWRYYEVYYFLLVLLSSNTILQTFMCFCIMLHWFCT”: 40400. The value for “WGRKGRGKSPLYDFDVNEFDPQVLFSTGTRTVEFMDDQNQPSSASAFLSTARP” was 49300; that for “WGTTFRDEGSRVRVLMRRLARMMRLGGRTPCQSDHISNVHFSAPADWQSTWGT” was 48000.

Take “WHIRCVLLLVAFLHICYQVSYCACGLILVCLNFIFVRQPGGLEMLLTLKTAFY”: the “transcriptional activation domain activity” value stood at 57800. In the case of “WHTDLGIPSFGWTLLHELEGLLGRIEANWMEEVTVRTIVLLTSRLLSAVRDHD”, the “transcriptional activation domain activity” value is 55200. Take “WHVAYPLVATGLCVAPQEFFLKHWLAFLREKGTRSFVLNGMLRLLWTYLYRCQ”: the “transcriptional activation domain activity” value came to 45800. Next, “WIDTVLIVLFSNDVQIKHKLGRLIIDEWIQIKCPTRTCLLLKLLRKKLHNSLA”: 33500; “WIIPTPFGSHAFHPVDGYFQSVPYHLFIFIFPLHRVLYLTLFVLVNFWSIFIH”: 61100; “WIKWTFLFARYFPLLAGLCGRVIDSIVLYRNPIPIPLNALRIWYICQVLILHL”: 78200.

Turning to “WIPFTLSIIVVEIPYLLFFSTSLLCGIYWTAGLSNTPDAVGYFYLMIFFFIFW”, the “transcriptional activation domain activity” value was determined as 61600. As to “WIQCTIPGYVSNFAYGLASGFTVTLNTAVLMEIVFHSKSYRILILSLFTTLYV”, the “transcriptional activation domain activity” value is 61400.

Take “WIVALAIIVSDYYGVVKGGVAYGLLASSNTSMAVFIFVWHLGGIWMITMLACM”: the “transcriptional activation domain activity” value turned out to be 65100. Regarding “WIVTHSHFIPTAEAGTTGEGMGEGEDRDPDTVRLAVRSLTICMRSANIAMLVG”, the “transcriptional activation domain activity” value worked out at 53600. Regarding “WKATKYLIGLWIQCFRDRGLIGPVGYRGHVHCVVRFCLCLIPKSHWQTIIVVT”, the “transcriptional activation domain activity” value worked out at 63500. As for “WKKTIQNKIKDSLTLSSKEKELLHLIEHGAEQTTENSNLFYDIFEEIIDSLPS”, the “transcriptional activation domain activity” value was 112000. Consider “WKPDIYTCVMRMLLDRLHSALGSLHARSIIRKIRILVALAGNVAYRGYPLQMT”, for which the “transcriptional activation domain activity” value came to 48900. In the case of “WLAHSKKKDCDVCKHPYSFNKVYSPDMPARLPPVLLLRHLAKQLFFTVLFSIR”, the “transcriptional activation domain activity” value amounted to 76900.

Take “WLAHSKKKTCDVCKHPYSFTKVYATDMPSRLPPVLLLRRVAQQSFFAMLFAVR”: the “transcriptional activation domain activity” value was found to be 37900.

Turning to “WLAHSKKKTCDVCKHPYSFTKVYATDMPTRLPPVLLLRRVAQQSFFAMIFAVR”, the “transcriptional activation domain activity” value is 35900.

Turning to “WLAHSKKKTCDVCKHPYSFTKVYATDMPTRLPPVLLLRRVAQQSFFAMLFAVR”, the “transcriptional activation domain activity” value amounted to 48100. As for “WLFCFICYPLPLHPISYQIAPPFYSIFFVILLTIVFFLLLFLFVSSFLYLRLG”, the “transcriptional activation domain activity” value came out at 70000. For “WLHKLPRATWAYPLYGIYYLLTNPALLSPLLSRIIPLLILSIFVLTFTFTFLY”, the “transcriptional activation domain activity” value was determined as 43800. Next, “WLIKPEQNNGTWVADVLWPKLNLDLQWIASHWNQSSWDLWWPPVWGVLTGLPL”: 67700; “WLILIRIINPIIMYFFVSCFYSLLSLAFQVPFNRFYGSSGFVIYWMMSWMAMC”: 47100. Regarding “WLLCQVPTRNLGVLVFDSSKRYHLVHPDSPTGEQRHTQFVIVLFIVAFIRGVA”, the “transcriptional activation domain activity” value was 47700. As for “WLLFLQEYGTITLTLLQSLEYWISNIDLTDESKSQLSKQGRACMYHLIVLTLR”, the “transcriptional activation domain activity” value is 53700.

“WLLQYMMLLGTLRRQSDKLVVKVGWYMANYLVPGIYVFQPRIVMKVLLLILRQ”: the “transcriptional activation domain activity” value was 44500.

With “WLLSVYILGFLAFELASVLIAIRVVAIWRRARPVLVFVVVALLTQFSFIIYLS”, the “transcriptional activation domain activity” value is 23300. In the case of “WLLTFFTVDFLPNRDLRILLANWLNTLIHDPILKKHTDGLGIVRRLVKVAKEC”, the “transcriptional activation domain activity” value amounted to 48400.

Turning to “WLMYYIHATGDTKVSLPFNPSRVIKINMVLLSHLVAWINYLPLVVSYVHWRYW”, the “transcriptional activation domain activity” value was 51000. In the case of “WLNGCFLLVGHIIFQLVMCYQLAQIIRGIVQMYGHLWISNDWHCLWITWLILF”, the “transcriptional activation domain activity” value was determined as 63600. “WLPFPESLGSSYRMPGIEPYVDFVMGRILAKKLPELLDSCQILMLRWKCLCFI”: the “transcriptional activation domain activity” value amounted to 63200. Consider “WLPNWLVPVMTAFSWMTWIAPKHRDLNILTGFNNGMGLLNFWPTWDWNVLLFT”, for which the “transcriptional activation domain activity” value came out at 54200. The value for “WLRPPRWACGRRALLLLSMGLGTVMLLILTGLLTMNQSNGAKLPVVMVFVILF” was 32600. As for “WLRVRKFTVTLATFVEPGTESILCGLYGAYALTTLPFFHNIGISSTWTSFFLI”, the “transcriptional activation domain activity” value worked out at 36600. Turning to “WLSDENDGASHINVNKDSSSVLSASSSTWFEPLENIISSASSSSIGSPIEDQF”, the “transcriptional activation domain activity” value came to 60800. For “WLSHSKKKSCDVCKHPYSFTKVYAENMPPRLPVFLLLRKVVEQAFFTIVFSIR”, the “transcriptional activation domain activity” value came out at 55100. As for “WLSHSKKKTCDVCKHPYSFTKVYAEDMPSRLPLVLLLRKLIEQVFYTALFCIR”, the “transcriptional activation domain activity” value was determined as 54100. Consider “WLSHSQKKHCELCKTPFRFTKLYAPNMPKALPTHIFLSHMAKYILRNLLVWLR”, for which the “transcriptional activation domain activity” value was determined as 61200.

For “WLSHSQKKHCELCKTPFRFTKLYAPNMPKALPTHVFLSHVAKYILRNLLVWLR”, the “transcriptional activation domain activity” value was found to be 81200. Consider “WLVKVYRLGPFSRDKRYGFAKLLGLKLNYDVKQVKQKPSFQLSMALALLNKCT”, for which the “transcriptional activation domain activity” value amounted to 64500. In the case of “WMIWFRVGFACIFSSCVFLRVYGLYRIFIQRKPFTRYSFYVPFTIFTVCVFIF”, the “transcriptional activation domain activity” value is 69400. With “WPFDESIERNFSTTATAATGESKFDINDNCNRINSKSYSKTNSMNGNGMNNSN”, the “transcriptional activation domain activity” value was determined as 28400. The value for “WPWTFWPWTFWIFWTFWTFGLFGLFGLFGLGLFGLFGLFGPLDFLDFLDLWTF” was 42000. With “WQTALVHKHAQRVIHSTLEVVDQLVPKHYDHQLLRRCWGALNLIMTYVSFMCV”, the “transcriptional activation domain activity” value turned out to be 41400. Take “WRGRLVQRRSNDHEIDFVPYKTIYGGFWSHVNPSRLAVPRYLNIFRIIVWLFF”: the “transcriptional activation domain activity” value was found to be 54400. Turning to “WRHLFLGQLPLLMSEPFTNSTPIIDPLLNNDFELIDFEVNLMKYLQSKDQQLS”, the “transcriptional activation domain activity” value worked out at 117000. “WRILLIVHLFGPFSLVDELLLPFKSSTSIFLFGILYIYCLFVLFLAYMILSIL”: the “transcriptional activation domain activity” value is 32600. In the case of “WRKQWLVPLLIRYFNQMVLTLIRWFPLRCLYYTLIKGQAYEGLNKEYDADGIH”, the “transcriptional activation domain activity” value turned out to be 58300. For the sequence “WRLYMAFRTLKGKLLPCLIEANGLDLFISTFAAIVERVAEVSNLRLTSKLYQA”, the “transcriptional activation domain activity” value is 44900.

As for “WRVLSVFAVFNLGPYVFSLILYSSNAFLYTQWLSFTAVCLISLANVILFRFLL”, the “transcriptional activation domain activity” value was determined as 43700.

For the sequence “WRYGKCQVCGYVMINYPGPNQRHHCLEGRVRTVYNTVTFPCYLEVHVVQMIWL”, the “transcriptional activation domain activity” value came out at 60800. For “WSFLSFSFLPFPLSSFLLLSYPPPSFFLLPPSPFFFAVLLHLFTLLLFSLLLL”, the “transcriptional activation domain activity” value came to 63900. Next, “WSHPLRMTYFLVLVFFSCTWVGGVLRRGWGYLVLNAFCRHSYICGVCCIHYLS”: 18800. In the case of “WSILYLLCEVYARLLLTLSDDEFLSHAGNPLSLKQVIELTRQLKNLSFVLFWR”, the “transcriptional activation domain activity” value came to 70700. As to “WSSYTGPILSPGFSDLDWAPDPSNTTSGNLFIDLWPTWLSWMPDSTVLFTPWG”, the “transcriptional activation domain activity” value was found to be 49900. Next, “WSVFFFFFFFFCLNLSVLWLWFFRLFFFFFFLCAFDVLCLPLSCPPLFRPKAT”: 48200. Take “WSVLLCFAVSFFSFSFLSFWAVTALCYGFVFVFFILLCVLCCFSFAFSHVYLF”: the “transcriptional activation domain activity” value was 49600. “WSVMSCLYLVVRYFGIFLALLCGFWGGLLYIPESVSYGLIVLIEWGFSVYFWF”: the “transcriptional activation domain activity” value came out at 41400. With “WSVVFPLQEEEKKKNEEEGLAFPSLDNIKGILRPDSCMRLGSSANIVVLTFPD”, the “transcriptional activation domain activity” value was 53600. Turning to “WTCVRRPGGLGGFFFGTWTGWQIWVGLLVFWVGGCTFGLLLMNRFLLLTGVYK”, the “transcriptional activation domain activity” value amounted to 42000. On to “WTGWEGGRYLPFFFFPFFFFFATCCFSLFMILFFVFFFPGRISISFRLLLFFL”, for which the “transcriptional activation domain activity” value was 43000.

Turning to “WVLNVHLCLFYLAAFGDSAFNVISAIRKLSELPFSYSLYLFAWLFISWDLLFV”, the “transcriptional activation domain activity” value was found to be 70500. Consider “WVMYVIFITVGWYAMVTGQSIVLYSRLHLVVNSIKVLRFVLILICVDVVILHV”, for which the “transcriptional activation domain activity” value was determined as 67500.

“WWGDTYFLFFPCLMYKFHVGFCLYMKWEMLYLLLFGRACDVFIMIGVVAVHVL”: the “transcriptional activation domain activity” value is 62400. As for “WWLLGDSYESEIISLVILFQFWNNGALVNFGSAFRQAWWRNYLLVFVWSCFFI”, the “transcriptional activation domain activity” value was 17800.

Turning to “WWLRINLNICISYWIVATGVVVVYDWVLTLYGACQILLVMQMFVLGPCLILSV”, the “transcriptional activation domain activity” value was 46900. For “WWLVKVTVSVLWVLDTFDMCLIFHILYWYLIINYGNPLSLANPIWSIILHVLV”, the “transcriptional activation domain activity” value is 64800. For “WWMYLPLLLLLVLMFAPHYSILVLLVSYYLNIHDSPFLFSLHLFVIYLITFLA”, the “transcriptional activation domain activity” value is 58200. As for “WYAPDAGGSVYDYITLTAGLDALNCAQKVRISPLLIVLLRNFAVRCLLSKGSL”, the “transcriptional activation domain activity” value worked out at 52300.
